# Source: patent US20230212319A1, “NOVEL ANTIGEN BINDING DOMAINS AND SYNTHETIC ANTIGEN RECEPTORS INCORPORATING THE SAME” (University of Southern California, priority 2020, published 2023)
# Assays:
# PC3 cells = test: JNG NFAT-GFP induction on co-culture with PC3
# DAUDI (CD20+) cells = type: cell-based
# RS411 cells = type: cell-based
# RAJI cells = test: JNG (Jurkat NFAT-GFP) cells expressing SAR: GFP induction on co-culture with RAJI
Molecule,NFAT-GFP ASSAY: PC-3 (PC3 cells),"GFP induction (JNG-GFP induction assay), DAUDI (DAUDI (CD20+) cells)","GFP induction (JNG-GFP induction assay), RS;411 (RS411 cells)","GFP induction (JNG-GFP induction assay), RAJI WT (RAJI cells)"
22691 (protein) MALPVTALLLPLALLLHAARPDIQMTQSPSSLSASVGDRVTITCRASQDISSYLNWYQQKPGKAPKLLIYYTSRLHSGVPSRFSGSGSGTDFTLTISSLQPEDFATYYCQQGNTLPYTFGQGTKVEIKRLEDLKNVFPPEVAVFEPSEAEISHTQKATLVCLATGFYPDHVELSWWVNGKEVHSGVCTDPQPLKEQPALNDSRYCLSSRLRVSATFWQNPRNHFRCQVQFYGLSENDEWTQDRAKPVTQIVSAEAWGRADCGFTSESYQQGVLSATILYEILLGKATLYAVLVSALVLMAMVKRKDSRGRAKRSGSGATNFSLLKQAGDVEENPGPTSMDWIWRILFLVGAATGAHSFEVQLVESGGGLVQPGGSLRLSCAASGFTFSDYFMSWVRQAPGKGLEWVATISNGGTYTYYPDSVKGRFTISRDNSKNTLYLQMNSLRAEDTAVYYCARFDGYIFDYWGQGTLVTVSSTRIQNPDPAVYQLRDSKSSDKSVCLFTDFDSQTNVSQSKDSDVYITDKCVLDMRSMDFKSNSAVAWSNKSDFACANAFNNSIIPEDTFFPSPESSCDVKLVEKSFETDTNLNFQNLSVIGFRILLLKVAGFNLLMTLRLWSSRAKRSGSGVKQTLNFDLLKLAGDVESNPGPSRGHMTEYKPTVRLATRDDVPRAVRTLAAAFADYPATRHTVDPDRHIERVTELQELFLTRVGLDIGKVWVADDGAAVAVWTTPESVEAGAVFAEIGPRMAELSGSRLAAQQQMEGLLAPHRPKEPAWFLATVGVSPDHQGKGLGSAVVLPGVEAAERAGVPAFLETSAPRNLPFYERLGFTVTADVEVPEGPRTWCMTRKPGA,significant GFP induction,,,
"4089 (protein, Synthetic Polynucloetide) MALPVTALLLPLALLLHAARPDIQMTQSPSSLSASVGDRVTITCKASDHINNWLAWYQQKPGQAPKLLIYGATTLETGVPSRFSGSGSGTDYTLTISSLQPEDFATYYCQQSWNTPWTFGQGTKLEIKRLEDLKNVFPPEVAVFEPSKAEIAHTQKATLVCLATGFYPDHVELSWWVNGKEVHSGVCTDPQPLKEQPALNDSRYCLSSRLRVSATFWQNPRNHFRCQVQFYGLSENDEWTQDRAKPVTQIVSAEAWGRADCGITSASYHQGVLSATILYEILLGKATLYAVLVSALVLMAMVKRKDSRGRAKRSGSGATNFSLLKQAGDVEENPGPTSMDWIWRILFLVGAATGAHSGPQVQLQESGGGLAQAGGSLRLSCAASGRTFSMGWFRQAPGKEREFVAAITYSGGSPYYASSVRGRFTISRDNAKNTVYLQMNSLKPEDTAVYYCAANPTYGSDWNAENWGQGTQVTVSSGSGGGGSGGGGSGGGGSFEQVQLQQPGAELVKPGASVKMSCKASGYAFSSYWINWMKQKPGQGLEWIGQIYPGDGDTNYNGKFKGRATLTADTSSSTAYMQLSSLTSEDSAVYFCARSITTVVGCAMDYWGQGTSVTVSSTRIQNPDPAVYQLRDSKSSDKSVCLFTDFDSQTNVSQSKDSDVYITDKCVLDMRSMDFKSNSAVAWSNKSDFACANAFNNSIIPEDTFFPSSDVPCDVKLVEKSFETDTNLNFQNLSVIGFRILLLKVAGFNLLMTLRLWSSRAKRSGSGVKQTLNFDLLKLAGDVESNPGPSRGHMTEYKPTVRLATRDDVPRAVRTLAAAFADYPATRHTVDPDRHIERVTELQELFLTRVGLDIGKVWVADDGAAVAVWTTPESVEAGAVFAEIGPRMAELSGSRLAAQQQMEGLLAPHRPKEPAWFLATVGVSPDHQGKGLGSAVVLPGVEAAERAGVPAFLETSAPRNLPFYERLGFTVTADVEVPEGPRTWCMTRKPGA",,highly positive,highly positive,positive
